Consider ten molecules from EP2574667A1, “Enzyme variants” (Technische Universität Graz, priority 2011, dated 2013).

Data set [1] concerns O=C(O)C(=O)Cc1ccccc1. Kind of data set: Steady state kinetics by O2 depletion, HMS variant V223M. The settings on record: other: Table 3, apparent, air saturation, pH 7.5, 25.0 °C. In kind it is biochemical, Streptomyces coelicolor A3 (2). The protocol: (§1) Dioxygen consumption was continuously monitored using a micro-optode O2 sensor (Microtox TX3-AOT, Presens GmbH,Regensburg, Germany). Assays were generally performed at 25°C in air saturated 20 mM Tris/HCl buffer, pH 7.5 with enzyme concentrations of approx. 20 µM. To start the reaction, substrate aliquots were added from 5 mM stock solutions of the respective substrate to the desired end-concentration in a total volume of 500 µL. Initial rates were determined by linear regression analysis using the initial, linear part of the O2 depletion curve. O2 consumption rates from blanks that contained substrate in the absence of enzyme were subtracted as necessary. Specific activities were obtained by relating measured rates of O2 depletion to the protein derived Fe(II) content in the assay.
(§2) Kinetic analysis was performed via measuring O2 depletion. Kinetic parameters are apparent, as measurements were performed at air saturation. Product analysis was performed via HPLC (method is outlined in Appendix B) and confirmed via GC-MS. It could be shown that the enzyme converts phenylpyruvate analogues as a whole cell system, when a substrate analogue (e.g. p-F-phenylpyruvate) was added to cultures of E.coli BL21 cells overexpressing HMS variant S221M_V223M_Y359A. The overexpression was induced with IPTG as described in Material and Methods. […]

In data set [2] the test system is O=C(O)C(=O)Cc1ccccc1. Nature of the data set: Steady state kinetics by O2 depletion, HMS variant V223W. In kind it is biochemical, Streptomyces coelicolor A3 (2). The settings on record: other: Table 3, apparent, air saturation, pH 7.5, 25.0 °C. The protocol:
as §1, §2

Data set [3] has as its system O=C(O)C(=O)Cc1ccccc1. Nature of the data set: Steady state kinetics by O2 depletion, HMS variant S221M_Y359A. The settings on record: other: Table 3, apparent, air saturation, pH 7.5, 25.0 °C. The format is biochemical, Streptomyces coelicolor A3 (2). The protocol: as §1, §2
In data set [4] the target is T1, 4-hydroxymandelate synthase (Hms, HMS) from Streptomyces coelicolor A3 (2), wild type, SEQ ID No. 1 (Streptomyces coelicolor, UniProt Q9Z4X7).
T1 sequence (Q9Z4X7 1-371): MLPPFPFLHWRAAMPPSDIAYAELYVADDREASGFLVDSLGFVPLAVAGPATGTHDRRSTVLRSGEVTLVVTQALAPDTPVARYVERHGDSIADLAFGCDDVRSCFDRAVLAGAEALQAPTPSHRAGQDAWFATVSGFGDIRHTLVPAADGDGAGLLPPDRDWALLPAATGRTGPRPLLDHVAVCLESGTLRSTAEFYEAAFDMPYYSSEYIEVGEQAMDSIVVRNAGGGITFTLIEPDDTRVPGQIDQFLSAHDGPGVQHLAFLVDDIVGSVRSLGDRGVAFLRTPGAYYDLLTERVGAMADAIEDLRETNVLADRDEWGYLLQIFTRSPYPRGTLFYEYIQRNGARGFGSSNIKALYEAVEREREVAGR
The settings on record: Table 2; apparent, air saturation (260 µM dioxygen), Tris buffer 20 mM pH 7.5, 25°C.

Data set [5] concerns O=C(O)C(=O)Cc1ccccc1. Kind of data set: Steady state kinetics by O2 depletion, HMS variant I236F. The format is biochemical, Streptomyces coelicolor A3 (2). The settings on record: other: Table 3, apparent, air saturation, pH 7.5, 25.0 °C. The protocol:
as §1, §2

Data set [6] concerns O=C(O)C(=O)Cc1ccccc1. Kind of data set: Steady state kinetics by O2 depletion, HMS variant Y359A. The format is biochemical, Streptomyces coelicolor A3 (2). The conditions noted are these: other: Table 3, apparent, air saturation, pH 7.5, 25.0 °C. The protocol: as §1, §2
Data set [7] relates to O=C(O)C(=O)Cc1ccccc1. Kind of data set: Steady state kinetics by O2 depletion, HMS variant S221M. The format is biochemical, Streptomyces coelicolor A3 (2). The conditions noted are these: other: Table 3, apparent, air saturation, pH 7.5, 25.0 °C. The protocol:
as §1, §2

Data set [8] concerns O=C(O)C(=O)Cc1ccccc1. Kind of data set: Steady state kinetics by O2 depletion, HMS variant V223F. In kind it is biochemical, Streptomyces coelicolor A3 (2). The conditions noted are these: other: Table 3, apparent, air saturation, pH 7.5, 25.0 °C. The protocol:
as §1, §2

Data set [9] relates to O=C(O)C(=O)Cc1ccccc1. Kind of data set: Steady state kinetics by O2 depletion, HMS variant V223F Y359A. In kind it is biochemical, Streptomyces coelicolor A3 (2). The settings on record: other: Table 3, apparent, air saturation, pH 7.5, 25.0 °C. The protocol: as §1, §2
Substrate in data set [10]: O=C(O)C(=O)Cc1ccc([N+](=O)[O-])cc1
Kind of data set: purified protein, by the assay type. The settings on record: other: Table 2, apparent, air saturation (260 µM dioxygen), Tris buffer 20 mM pH 7.5, 25°C.

Substrate in data set [11]: Cc1ccc(CC(=O)C(=O)O)cc1
Nature of the data set: purified protein, by the assay type. The settings on record: other: Table 2, apparent, air saturation (260 µM dioxygen), Tris buffer 20 mM pH 7.5, 25°C.

Substrate in data set [12]: COc1ccc(CC(=O)C(=O)O)cc1
Kind of data set: purified protein, by the assay type. The settings on record: other: Table 2, apparent, air saturation (260 µM dioxygen), Tris buffer 20 mM pH 7.5, 25°C.

Substrate in data set [13]: O=C(O)C(=O)Cc1ccccc1
Kind of data set: purified protein, by the assay type. The conditions noted are these: other: Table 3; apparent, air saturation, O2 depletion; pH 7.5; 25.0 °C.

Substrate in data set [14]: O=C(O)C(=O)Cc1ccc(F)cc1
Nature of the data set: purified protein, by the assay type. The settings on record: other: Table 2, apparent, air saturation (260 µM dioxygen), Tris buffer 20 mM pH 7.5, 25°C.

By Km is commonly meant the concentration of substrate that gives half-maximal velocity. A word on the kcat: it is the maximal rate divided by the concentration of active sites. On to “4-hydroxymandelate synthase (HMS) from Streptomyces coelicolor A3 (2), variant V223M, SEQ ID No. 4 (Streptomyces coelicolor A3(2); V223M)”, for which, in the data set with O=C(O)C(=O)Cc1ccccc1 [1], the Km stood at 230 µM and the catalytic constant (kcat) came to 1.9 s⁻¹.
For the molecule “4-hydroxymandelate synthase (HMS) from Streptomyces coelicolor A3 (2), variant V223W, SEQ ID No. 3 (Streptomyces coelicolor A3(2); V223W)”, in the data set on O=C(O)C(=O)Cc1ccccc1 [2], the Km was found to be 230 µM and the kcat was determined as 0.5 s⁻¹.
Consider “4-hydroxymandelate synthase (HMS) from Streptomyces coelicolor A3 (2), variant S221M_Y359A, SEQ ID No. 8 (Streptomyces coelicolor A3(2); S221M/Y359A)”, for which, in the data set with O=C(O)C(=O)Cc1ccccc1 [3], the Km was found to be 240 µM and the kcat is 1.1 s⁻¹.
Turning to `COc1ccc(CC(=O)C(=O)[O-])cc1.[Na+]`, the kcat in [4] stood at 0.96 ± 0.12 s⁻¹.
Turning to “4-hydroxymandelate synthase (HMS) from Streptomyces coelicolor A3 (2), variant I236F (Streptomyces coelicolor A3(2); I236F)”, in the data set on O=C(O)C(=O)Cc1ccccc1 [5], the Michaelis-Menten constant (Km) was determined as 2000 µM and the kcat is 0.9 s⁻¹.
Take “4-hydroxymandelate synthase (HMS) from Streptomyces coelicolor A3 (2), variant Y359A, SEQ ID No. 5 (Streptomyces coelicolor A3(2); Y359A)”: in the data set with O=C(O)C(=O)Cc1ccccc1 [6], the Km worked out at 270 µM and the kcat stood at 4.8 s⁻¹.
With “4-hydroxymandelate synthase (HMS) from Streptomyces coelicolor A3 (2), variant S221M, SEQ ID No. 6 (Streptomyces coelicolor A3(2); S221M)”, in the data set on O=C(O)C(=O)Cc1ccccc1 [7], the Km is 330 µM and the kcat turned out to be 1.9 s⁻¹.
As to “4-hydroxymandelate synthase (HMS) from Streptomyces coelicolor A3 (2), variant V223F, SEQ ID No. 2 (Streptomyces coelicolor A3(2); V223F)”, in the data set on O=C(O)C(=O)Cc1ccccc1 [8], the Km worked out at 27 µM and the kcat turned out to be 1.1 s⁻¹.
On to “4-hydroxymandelate synthase (HMS) from Streptomyces coelicolor A3 (2), variant V223F Y359A (V223F_Y359A), SEQ ID No. 7 (Streptomyces coelicolor A3(2); V223F/Y359A)”, for which, in the data set on O=C(O)C(=O)Cc1ccccc1 [9], the Km stood at 1000 µM and the kcat is 2.1 s⁻¹.

B1: 4-hydroxymandelate synthase (Hms, HMS) from Streptomyces coelicolor A3 (2), wild type, SEQ ID No. 1 (Streptomyces coelicolor A3(2)) (protein)
chain: T1 sequence (Q9Z4X7 1-371)
For the molecule B1, the kcat turned out to be 0.035 ± 0.007 s⁻¹ in data set [10], 0.13 ± 0.02 s⁻¹ in data set [11], 0.9 s⁻¹ in [13] and 0.077 ± 0.004 s⁻¹ in data set [14]. The Km in [12] was 160 ± 70 µM; in data set [13], 350 µM.
